Results: patent publication US10294487B2, “Methods and compositions involving ALS variants with native substrate preference” (E I DU PONT DE NEMOURS AND COMPANY, priority 2012, dated 2019)

B1: GM-ALS_G102S: Glycine Max ALS1 variant with a G→S mutation at position 102 (protein)
chain: MAATASRTTRFSSSSSHPTFPKRITRSTLPLSHQTLTKPNHALKIKCSISKPPTAAPFTKEAPTTEPFVSRFASGEPRKGADILVEALERQGVTTVFAYPGSASMEIHQALTRSAAIRNVLPRHEQGGVFAAEGYARSSGLPGVCIATSGPGATNLVSGLADALMDSVPVVAITGQVPRRMIGTDAFQETPIVEVSRSITKHNYLILDVDDIPRVVAEAFFVATSGRPGPVLIDIPKDVQQQLAVPNWDEPVNLPGYLARLPRPPAEAQLEHIVRLIMEAQKPVLYVGGGSLNSSAELRRFVELTGIPVASTLMGLGTFPIGDEYSLQMLGMHGTVYANYAVDNSDLLLAFGVRFDDRVTGKLEAFASRAKIVHIDIDSAEIGKNKQAHVSVCADLKLALKGINMILEEKGVEGKFDLGGWREEINVQKHKFPLGYKTFQDAISPQHAIEVLDELTNGDAIVSTGVGQHQMWAAQFYKYKRPRQWLTSGGLGAMGFGLPAAIGAAVANPGAVVVDIDGDGSFIMNVQELATIRVENLPVKILLLNNQHLGMVVQWEDRFYKSNRAHTYLGDPSSESEIFPNMLKFADACGIPAARVTKKEELRAAIQRMLDTPGPYLLDVIVPHQEHVLPMIPSNGSFKDVITEGDGRTRY
modifications: ALS1 variant G102S
B2: GM-ALS_G102S_D357E: Glycine Max ALS1 with G→S at position 102 and D→E at position 357 (protein)
chain: MAATASRTTRFSSSSSHPTFPKRITRSTLPLSHQTLTKPNHALKIKCSISKPPTAAPFTKEAPTTEPFVSRFASGEPRKGADILVEALERQGVTTVFAYPGSASMEIHQALTRSAAIRNVLPRHEQGGVFAAEGYARSSGLPGVCIATSGPGATNLVSGLADALMDSVPVVAITGQVPRRMIGTDAFQETPIVEVSRSITKHNYLILDVDDIPRVVAEAFFVATSGRPGPVLIDIPKDVQQQLAVPNWDEPVNLPGYLARLPRPPAEAQLEHIVRLIMEAQKPVLYVGGGSLNSSAELRRFVELTGIPVASTLMGLGTFPIGDEYSLQMLGMHGTVYANYAVDNSDLLLAFGVRFDERVTGKLEAFASRAKIVHIDIDSAEIGKNKQAHVSVCADLKLALKGINMILEEKGVEGKFDLGGWREEINVQKHKFPLGYKTFQDAISPQHAIEVLDELTNGDAIVSTGVGQHQMWAAQFYKYKRPRQWLTSGGLGAMGFGLPAAIGAAVANPGAVVVDIDGDGSFIMNVQELATIRVENLPVKILLLNNQHLGMVVQWEDRFYKSNRAHTYLGDPSSESEIFPNMLKFADACGIPAARVTKKEELRAAIQRMLDTPGPYLLDVIVPHQEHVLPMIPSNGSFKDVITEGDGRTRY
modifications: ALS1 variant G102S D357E
B3: GM-ALS_G102S_P178S: Glycine Max ALS1 with G→S at position 102 and P→S at position 178 (protein)
chain: MAATASRTTRFSSSSSHPTFPKRITRSTLPLSHQTLTKPNHALKIKCSISKPPTAAPFTKEAPTTEPFVSRFASGEPRKGADILVEALERQGVTTVFAYPGSASMEIHQALTRSAAIRNVLPRHEQGGVFAAEGYARSSGLPGVCIATSGPGATNLVSGLADALMDSVPVVAITGQVSRRMIGTDAFQETPIVEVSRSITKHNYLILDVDDIPRVVAEAFFVATSGRPGPVLIDIPKDVQQQLAVPNWDEPVNLPGYLARLPRPPAEAQLEHIVRLIMEAQKPVLYVGGGSLNSSAELRRFVELTGIPVASTLMGLGTFPIGDEYSLQMLGMHGTVYANYAVDNSDLLLAFGVRFDDRVTGKLEAFASRAKIVHIDIDSAEIGKNKQAHVSVCADLKLALKGINMILEEKGVEGKFDLGGWREEINVQKHKFPLGYKTFQDAISPQHAIEVLDELTNGDAIVSTGVGQHQMWAAQFYKYKRPRQWLTSGGLGAMGFGLPAAIGAAVANPGAVVVDIDGDGSFIMNVQELATIRVENLPVKILLLNNQHLGMVVQWEDRFYKSNRAHTYLGDPSSESEIFPNMLKFADACGIPAARVTKKEELRAAIQRMLDTPGPYLLDVIVPHQEHVLPMIPSNGSFKDVITEGDGRTRY
modifications: ALS1 variant G102S P178S
B4: GM-ALS_G102S_D357N: Glycine Max ALS1 with G→S at position 102 and D→N at position 357 (protein)
chain: MAATASRTTRFSSSSSHPTFPKRITRSTLPLSHQTLTKPNHALKIKCSISKPPTAAPFTKEAPTTEPFVSRFASGEPRKGADILVEALERQGVTTVFAYPGSASMEIHQALTRSAAIRNVLPRHEQGGVFAAEGYARSSGLPGVCIATSGPGATNLVSGLADALMDSVPVVAITGQVPRRMIGTDAFQETPIVEVSRSITKHNYLILDVDDIPRVVAEAFFVATSGRPGPVLIDIPKDVQQQLAVPNWDEPVNLPGYLARLPRPPAEAQLEHIVRLIMEAQKPVLYVGGGSLNSSAELRRFVELTGIPVASTLMGLGTFPIGDEYSLQMLGMHGTVYANYAVDNSDLLLAFGVRFDNRVTGKLEAFASRAKIVHIDIDSAEIGKNKQAHVSVCADLKLALKGINMILEEKGVEGKFDLGGWREEINVQKHKFPLGYKTFQDAISPQHAIEVLDELTNGDAIVSTGVGQHQMWAAQFYKYKRPRQWLTSGGLGAMGFGLPAAIGAAVANPGAVVVDIDGDGSFIMNVQELATIRVENLPVKILLLNNQHLGMVVQWEDRFYKSNRAHTYLGDPSSESEIFPNMLKFADACGIPAARVTKKEELRAAIQRMLDTPGPYLLDVIVPHQEHVLPMIPSNGSFKDVITEGDGRTRY
modifications: ALS1 variant G102S D357N
B5: GM-ALS_A103T: Glycine Max ALS1 variant with a A→T mutation at position 103 (protein)
chain: MAATASRTTRFSSSSSHPTFPKRITRSTLPLSHQTLTKPNHALKIKCSISKPPTAAPFTKEAPTTEPFVSRFASGEPRKGADILVEALERQGVTTVFAYPGGTSMEIHQALTRSAAIRNVLPRHEQGGVFAAEGYARSSGLPGVCIATSGPGATNLVSGLADALMDSVPVVAITGQVPRRMIGTDAFQETPIVEVSRSITKHNYLILDVDDIPRVVAEAFFVATSGRPGPVLIDIPKDVQQQLAVPNWDEPVNLPGYLARLPRPPAEAQLEHIVRLIMEAQKPVLYVGGGSLNSSAELRRFVELTGIPVASTLMGLGTFPIGDEYSLQMLGMHGTVYANYAVDNSDLLLAFGVRFDDRVTGKLEAFASRAKIVHIDIDSAEIGKNKQAHVSVCADLKLALKGINMILEEKGVEGKFDLGGWREEINVQKHKFPLGYKTFQDAISPQHAIEVLDELTNGDAIVSTGVGQHQMWAAQFYKYKRPRQWLTSGGLGAMGFGLPAAIGAAVANPGAVVVDIDGDGSFIMNVQELATIRVENLPVKILLLNNQHLGMVVQWEDRFYKSNRAHTYLGDPSSESEIFPNMLKFADACGIPAARVTKKEELRAAIQRMLDTPGPYLLDVIVPHQEHVLPMIPSNGSFKDVITEGDGRTRY
modifications: ALS1 variant A103T

How the values were obtained:
G. max ALS1 protein [1] = assay: Colorimetric ALS kinetic assay (Km, kcat) with pyruvate as substrate; type: biochemical, Glycine max
Experimental: A survey of known ALS (AcetoLactate Synthase) gene variants (Table 2) was performed, and a number of ALS variants were selected for kinetic evaluation based on breadth and strength of insensitivity to ALS-inhibitor herbicides as well as kinetic activity parameters including the ratio of substrate preferences. The selected ALS gene variants (Table 3) were generated by PCR mediated site-directed mutagenesis. Finnzymes PHUSION® DNA polymerase (Cat. No. F-530S) was used for the PCR reactions, following the instructions for recommended temperatures and cycles in the PHUSION® protocol. Some mutagenesis reactions were assisted by the use of IN-FUSION® enzyme (Clontech Cat. No. 639620) to circularize a linear plasmid with the mutation located within the 15 nucleotide overlapping ends, via recombination following the manufacturer's protocol for primer design and reaction conditions. The ALS genes, beginning with encoded amino acids SISK, (S48 to K51 in the G. max ALS1 protein (SEQ ID NO:1) corresponding to the mature protein N-terminus of the chloroplast localized enzyme), were cloned into the PMAL® E. coli expression vector (New England Biolabs) to express ALS as a fusion protein with a Maltose-Binding Protein (MBP) at the N-terminus with a thrombin site for cleavage and a His-6 tag for affinity purification. All in vitro protein characterization described in the examples was carried out with the isolated proteins after cleavage from the His-MBP fusion partner.
Km and Kcat determinations for recombinant ALS variants (with respect to pyruvate as the substrate) were performed using a colorimetric assay. ALS assays were carried out in 96-well microplates with 150 ul reaction containing 25 mM potassium phosphate, 0.2 mg/ml BSA, 15 mM MgCl2, 0.7 mM TPP, 28 uM FAD and 0-100 mM sodium pyruvate. Reactions were initiated by the addition of ALS enzyme to a final amount of 0.8 ug/well. Parameters for Km and Vmax were determined by fitting the velocity versus substrate concentration data to a rectangular hyperbola using GraphPad Prism software. Kcat values were determined from Vmax based on protein concentration in the reactions.

G. max ALS1 protein [2] = assay: Substrate specificity ratio (Rf), pyruvate versus 2-ketobutyrate, LC-MS of reduced products; type: biochemical, Glycine max; settings: ratio of [pyruvate] to [2-ketobutyrate] giving equal rates of acetolactate and acetohydroxybutyrate formation; 25 mM pyruvate
Excerpt: The “substrate specificity ratio”, or “Rf”, characterizes the specificity of the ALS enzyme for AHB formation relative to AL formation (Gollop et al. (1989) Biochemistry 28:6310-6317). Rf is the ratio of [pyruvate] to [2-ketobutyrate] that results in equal rates of formation of acetolactate and acetohydroxybutyrate. Rf is a constant at all substrate concentrations. The substrate specificity ratio is ˜114 for the wild type Glycine max ALS1 enzyme (SEQ ID NO:1) compared to ˜3 for the highly resistant allele (HRA) double mutant variant (SEQ ID NO: 10) of the Glycine max ALS1. The soybean HRA sequence is disclosed, for example, in WO2007/024782, herein incorporated by reference.
Substrate preference was determined using the assay described in Example 3; however, the assay was conducted using a constant concentration of pyruvate (25 mM) and varying concentrations of the second substrate, 2-ketobutyrate. Each reaction involving a specific ratio of pyruvate to 2-ketobutyrate, after a set period of time, was quenched by addition of sodium borohydride (7-fold excess) to form the reduced adducts of the products of the two substrates namely; reduced acetolactate for the reaction with pyruvate and reduced aceto hydroxybutyrate for the 2-ketobutyrate reaction. The relative amounts of the two reduced products was determined by first, chromatographic separation using a 4.6×250 mm dC18 column (Atlantis) equilibrated with a 0.1% formic acid solution and subsequent elution using a methanol gradient at 0.7 ml/min, followed by detection using a Thermo FINNIGAN® LTQ® Mass Spectrometer (MS). The products of the two reactions were quantified by integration of the MS signals. The % of the amount of each of the reduced products was then plotted versus the concentration of 2-ketobutyrate. As the 2-ketobutyrate amount increased there was a consequent increase in reduced acetohydroxybutyrate (AHB) and decrease in reduced acetolactate (AL). […] The substrate specificity ratio was ˜114 for the wild type enzyme compared to 3 for the highly resistant allele (HRA) double mutant ALS variant (SEQ ID NO: 10).

Molecule	Km (G. max ALS1 protein [1]) [mM]	kcat (G. max ALS1 protein [1]) [s⁻¹]	Substrate specificity ratio (Rf) (G. max ALS1 protein [2])
B1	3.5	1.33	10.2
B2	8	1.75	16.9
B3	5	1.47	12.0
B4	11	1.13	10.7
B5	3	1.82	83.3
